In patent US20100311648A1 (AstraZeneca / MedImmune, published 2010):
Positions of bridges follow the written chain, without caps; N, C: chain ends. Non-standard residues stand in square brackets, D forms with d. dPhe(3,4-F2) = N[C@H](Cc1ccc(F)c(F)c1)C(=O)O; dPhe(3,5-F2) = N[C@H](Cc1cc(F)cc(F)c1)C(=O)O; dPhe(4-CN) = N#Cc1ccc(C[C@@H](N)C(=O)O)cc1; dPhe(3-Me) = Cc1cccc(C[C@@H](N)C(=O)O)c1; dPhe(4-F) = N[C@H](Cc1ccc(F)cc1)C(=O)O; dPhe(2-F) = N[C@H](Cc1ccccc1F)C(=O)O; Orn = NCCC[C@H](N)C(=O)O

Tests used:
[1] = target: T1, human melanocortin-4 receptor (human, UniProt P32245 1-332); test: cell-based or functional assay
[2] = target: T1, human melanocortin-4 receptor; test: [I125]-NDP-α-MSH competition, hMC4-R HEK-293 membranes
Description: A competitive inhibition binding assay was performed for exemplified peptides according to the invention using membrane homogenates prepared from HEK-293 cells that express recombinant hMC4-R, hMC3-R, or hMC5-R, and from B-16 mouse melanoma cells (containing endogenous MC1-R). In some instances, HEK-293 cells that express recombinant hMC1-R were employed. Assays were performed in 96 well GF/B Millipore multiscreen filtration plates (MAFB NOB10) pre-coated with 0.5% bovine serum albumin (Fraction V). […] After incubation for 60 minutes at 37° C., the assay mixture was filtered and the membranes washed three times with ice-cold buffer. Filters were dried and counted in a gamma counter for bound radioactivity. […] Each assay was conducted in triplicate and the actual mean values are described, with results less than 0% reported as 0%. Ki values for test peptides of the present invention were determined using Graph-Pad Prism® curve-fitting software.

T1 sequence (P32245 whole entry): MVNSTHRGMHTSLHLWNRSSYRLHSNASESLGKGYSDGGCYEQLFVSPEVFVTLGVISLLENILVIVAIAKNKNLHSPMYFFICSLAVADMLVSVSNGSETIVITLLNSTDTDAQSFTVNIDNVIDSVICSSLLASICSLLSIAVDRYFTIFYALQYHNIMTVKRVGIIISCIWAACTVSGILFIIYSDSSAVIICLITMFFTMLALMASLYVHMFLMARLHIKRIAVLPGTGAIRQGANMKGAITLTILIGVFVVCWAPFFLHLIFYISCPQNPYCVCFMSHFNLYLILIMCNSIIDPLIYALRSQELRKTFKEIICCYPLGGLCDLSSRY

| Binder | EC50, cAMP, 0.1 ng/mL Doxycycline [1] [nM] | EC50, cAMP, 10 ng/mL Doxycycline [1] [nM] | Intrinsic Activity, cAMP, 0.1 ng/mL Doxycycline [1] [%] | Intrinsic Activity, cAMP, 10 ng/mL Doxycycline [1] [%] | Ki [2] [nM] |
| --- | --- | --- | --- | --- | --- |
| Ac-RKQ[dPhe(4-CN)]RWD-NH2 (lactam 2-7; SMILES CC(=O)N[C@@H](CCCNC(=N)N)C(=O)N[C@H]1CCCCNC(=O)C[C@@H](C(N)=O)NC(=O)[C@H](Cc2c[nH]c3ccccc23)NC(=O)[C@H](CCCNC(=N)N)NC(=O)[C@@H](Cc2ccc(C#N)cc2)NC(=O)[C@H](CCC(N)=O)NC1=O, also called No. 93) [Ac-Arg-cyclo(Lys-Gln-D-Phe(4-CN)-Arg-Trp-Asp)-NH2] | 0.3 | 0.17 | 44 | 97 | 1 |
| XDQXRWK (N-terminal Ac; D-Arg 1; D-Phe(4-F) 4; lactam Asp 2-Lys 7; C-terminal NH2, also called No. 83) [Ac-D-Arg-cyclo(Asp-Gln-D-Phe(4-F)-Arg-Trp-Lys)-NH2] | 0.75 | 0.075 | 78 | 94 | 6 |
| Ac-R[Orn]Q[dPhe(4-CN)]RWE-NH2 (lactam 2-7, also called No. 94) [Ac-Arg-cyclo(Orn-Gln-D-Phe(4-CN)-Arg-Trp-Glu)-NH2] | 0.24 | 0.09 | 32 | 92 | 0.9 |
| Ac-R[Orn]P[dPhe(2-F)]RWE-NH2 (lactam 2-7; SMILES CC(=O)N[C@@H](CCCNC(=N)N)C(=O)N[C@H]1CCCNC(=O)CC[C@@H](C(N)=O)NC(=O)[C@H](Cc2c[nH]c3ccccc23)NC(=O)[C@H](CCCNC(=N)N)NC(=O)[C@@H](Cc2ccccc2F)NC(=O)[C@@H]2CCCN2C1=O) [Ac-Arg-cyclo(Orn-Pro-D-Phe(2-F)-Arg-Trp-Glu)-NH2] | 3 | 0.15 | 35 | 94 | 7 |
| Ac-R[Orn]N[dPhe(3-Me)]RWE-NH2 (lactam 2-7, also called No. 72) [Ac-Arg-cyclo(Orn-Asn-D-Phe(3-Me)-Arg-Trp-Glu)-NH2] | 3 | 0.35 | 11 |  | 4 |
| Ac-R[Orn]N[dPhe(3,4-F2)]RWE-NH2 (lactam 2-7, also called No. 75) [Ac-Arg-cyclo(Orn-Asn-D-Phe(3,4-diF)-Arg-Trp-Glu)-NH2] | 0.65 | 0.125 | 43 |  | 3 |
| Ac-REQ[dPhe(4-F)]RW[Orn]-NH2 (lactam 2-7, also called No. 92) [Ac-Arg-cyclo(Glu-Gln-D-Phe(4-F)-Arg-Trp-Orn)-NH2] | 0.1 | 0.04 | 81 | 89 | 2 |
| XDQXRWK (N-terminal Ac; D-Arg 1; D-Phe(2-F) 4; lactam Asp 2-Lys 7; C-terminal NH2, also called No. 82) [Ac-D-Arg-cyclo(Asp-Gln-D-Phe(2-F)-Arg-Trp-Lys)-NH2] | 2 | 0.095 | 79 | 95 | 10 |
| RDPXRWK (N-terminal Ac; D-Phe(2-F) 4; lactam Asp 2-Lys 7; C-terminal NH2) [Ac-Arg-cyclo(Asp-Pro-D-Phe(2-F)-Arg-Trp-Lys)-NH2] | 191 | 10 | 16 | 100 | 78 |
| XDQXRWK (N-terminal Ac; D-Arg 1; D-Phe(3,4-diF) 4; lactam Asp 2-Lys 7; C-terminal NH2, also called No. 78) [Ac-D-Arg-cyclo(Asp-Gln-D-Phe(3,4-diF)-Arg-Trp-Lys)-NH2] | 2 | 0.2 | 48 | 89 | 8 |
| Ac-R[Orn]N[dPhe(3,5-F2)]RWE-NH2 (lactam 2-7, also called No. 77) [Ac-Arg-cyclo(Orn-Asn-D-Phe(3,5-diF)-Arg-Trp-Glu)-NH2] | 3 | 0.155 | 34 | 80 | 8 |
